Data taken from patent US20210139548A1 (published 2021).
*1 amine or outer side, *2 acyl side, *3 side chain or, on linkers, in order; H or OH if unused. Side-chain parts run from the residue outwards. The star is where a group is joined. C18 diacid = O=C(O)CCCCCCCCCCCCCCCCC(=O)*; γGlu = O=C(O)[C@H](CCC(=O)[*:2])N[*:1]; Isovaleryl = CC(C)CC(=O)*; AEEA = NCCOCCOCC(=O)O

B1: Compound 42 (peptide)
peptide: Isovaleryl-APEK([AEEA-AEEA-γGlu-C18 diacid])PEEAASPEELQRYYVSTRHYYNWLTRQRY-NH2
SMILES: CC(C)CC(=O)N[C@@H](C)C(=O)N1CCC[C@H]1C(=O)N[C@@H](CCC(=O)O)C(=O)N[C@@H](CCCCNC(=O)COCCOCCNC(=O)COCCOCCNC(=O)CC[C@H](NC(=O)CCCCCCCCCCCCCCCCC(=O)O)C(=O)O)C(=O)N1CCC[C@H]1C(=O)N[C@@H](CCC(=O)O)C(=O)N[C@@H](CCC(=O)O)C(=O)N[C@@H](C)C(=O)N[C@@H](C)C(=O)N[C@@H](CO)C(=O)N1CCC[C@H]1C(=O)N[C@@H](CCC(=O)O)C(=O)N[C@@H](CCC(=O)O)C(=O)N[C@@H](CC(C)C)C(=O)N[C@@H](CCC(N)=O)C(=O)N[C@@H](CCCNC(=N)N)C(=O)N[C@@H](Cc1ccc(O)cc1)C(=O)N[C@@H](Cc1ccc(O)cc1)C(=O)N[C@H](C(=O)N[C@@H](CO)C(=O)N[C@H](C(=O)N[C@@H](CCCNC(=N)N)C(=O)N[C@@H](Cc1c[nH]cn1)C(=O)N[C@@H](Cc1ccc(O)cc1)C(=O)N[C@@H](Cc1ccc(O)cc1)C(=O)N[C@@H](CC(N)=O)C(=O)N[C@@H](Cc1c[nH]c2ccccc12)C(=O)N[C@@H](CC(C)C)C(=O)N[C@H](C(=O)N[C@@H](CCCNC(=N)N)C(=O)N[C@@H](CCC(N)=O)C(=O)N[C@@H](CCCNC(=N)N)C(=O)N[C@@H](Cc1ccc(O)cc1)C(N)=O)[C@@H](C)O)[C@@H](C)O)C(C)C
B2: Compound 43 (peptide)
peptide: Isovaleryl-APEK([AEEA-AEEA-γGlu-C18 diacid])PEAPASPEELQRYYVSLRHYYNWLTRQRY-NH2
SMILES: CC(C)CC(=O)N[C@@H](C)C(=O)N1CCC[C@H]1C(=O)N[C@@H](CCC(=O)O)C(=O)N[C@@H](CCCCNC(=O)COCCOCCNC(=O)COCCOCCNC(=O)CC[C@H](NC(=O)CCCCCCCCCCCCCCCCC(=O)O)C(=O)O)C(=O)N1CCC[C@H]1C(=O)N[C@@H](CCC(=O)O)C(=O)N[C@@H](C)C(=O)N1CCC[C@H]1C(=O)N[C@@H](C)C(=O)N[C@@H](CO)C(=O)N1CCC[C@H]1C(=O)N[C@@H](CCC(=O)O)C(=O)N[C@@H](CCC(=O)O)C(=O)N[C@@H](CC(C)C)C(=O)N[C@@H](CCC(N)=O)C(=O)N[C@@H](CCCNC(=N)N)C(=O)N[C@@H](Cc1ccc(O)cc1)C(=O)N[C@@H](Cc1ccc(O)cc1)C(=O)N[C@H](C(=O)N[C@@H](CO)C(=O)N[C@@H](CC(C)C)C(=O)N[C@@H](CCCNC(=N)N)C(=O)N[C@@H](Cc1c[nH]cn1)C(=O)N[C@@H](Cc1ccc(O)cc1)C(=O)N[C@@H](Cc1ccc(O)cc1)C(=O)N[C@@H](CC(N)=O)C(=O)N[C@@H](Cc1c[nH]c2ccccc12)C(=O)N[C@@H](CC(C)C)C(=O)N[C@H](C(=O)N[C@@H](CCCNC(=N)N)C(=O)N[C@@H](CCC(N)=O)C(=O)N[C@@H](CCCNC(=N)N)C(=O)N[C@@H](Cc1ccc(O)cc1)C(N)=O)[C@@H](C)O)C(C)C
B3: Compound 45 (peptide)
peptide: Isovaleryl-APEK([AEEA-AEEA-γGlu-C18 diacid])PEEEASPESLQRYYVSLRHYYNWLTRQRY-NH2
SMILES: CC(C)CC(=O)N[C@@H](C)C(=O)N1CCC[C@H]1C(=O)N[C@@H](CCC(=O)O)C(=O)N[C@@H](CCCCNC(=O)COCCOCCNC(=O)COCCOCCNC(=O)CC[C@H](NC(=O)CCCCCCCCCCCCCCCCC(=O)O)C(=O)O)C(=O)N1CCC[C@H]1C(=O)N[C@@H](CCC(=O)O)C(=O)N[C@@H](CCC(=O)O)C(=O)N[C@@H](CCC(=O)O)C(=O)N[C@@H](C)C(=O)N[C@@H](CO)C(=O)N1CCC[C@H]1C(=O)N[C@@H](CCC(=O)O)C(=O)N[C@@H](CO)C(=O)N[C@@H](CC(C)C)C(=O)N[C@@H](CCC(N)=O)C(=O)N[C@@H](CCCNC(=N)N)C(=O)N[C@@H](Cc1ccc(O)cc1)C(=O)N[C@@H](Cc1ccc(O)cc1)C(=O)N[C@H](C(=O)N[C@@H](CO)C(=O)N[C@@H](CC(C)C)C(=O)N[C@@H](CCCNC(=N)N)C(=O)N[C@@H](Cc1c[nH]cn1)C(=O)N[C@@H](Cc1ccc(O)cc1)C(=O)N[C@@H](Cc1ccc(O)cc1)C(=O)N[C@@H](CC(N)=O)C(=O)N[C@@H](Cc1c[nH]c2ccccc12)C(=O)N[C@@H](CC(C)C)C(=O)N[C@H](C(=O)N[C@@H](CCCNC(=N)N)C(=O)N[C@@H](CCC(N)=O)C(=O)N[C@@H](CCCNC(=N)N)C(=O)N[C@@H](Cc1ccc(O)cc1)C(N)=O)[C@@H](C)O)C(C)C
B4: Compound 44 (peptide)
peptide: Isovaleryl-APEK([AEEA-AEEA-γGlu-C18 diacid])PEEEASPEELQRYYVSLRHYYNWITRQRY-NH2
SMILES: CC[C@H](C)[C@H](NC(=O)[C@H](Cc1c[nH]c2ccccc12)NC(=O)[C@H](CC(N)=O)NC(=O)[C@H](Cc1ccc(O)cc1)NC(=O)[C@H](Cc1ccc(O)cc1)NC(=O)[C@H](Cc1c[nH]cn1)NC(=O)[C@H](CCCNC(=N)N)NC(=O)[C@H](CC(C)C)NC(=O)[C@H](CO)NC(=O)[C@@H](NC(=O)[C@H](Cc1ccc(O)cc1)NC(=O)[C@H](Cc1ccc(O)cc1)NC(=O)[C@H](CCCNC(=N)N)NC(=O)[C@H](CCC(N)=O)NC(=O)[C@H](CC(C)C)NC(=O)[C@H](CCC(=O)O)NC(=O)[C@H](CCC(=O)O)NC(=O)[C@@H]1CCCN1C(=O)[C@H](CO)NC(=O)[C@H](C)NC(=O)[C@H](CCC(=O)O)NC(=O)[C@H](CCC(=O)O)NC(=O)[C@H](CCC(=O)O)NC(=O)[C@@H]1CCCN1C(=O)[C@H](CCCCNC(=O)COCCOCCNC(=O)COCCOCCNC(=O)CC[C@H](NC(=O)CCCCCCCCCCCCCCCCC(=O)O)C(=O)O)NC(=O)[C@H](CCC(=O)O)NC(=O)[C@@H]1CCCN1C(=O)[C@H](C)NC(=O)CC(C)C)C(C)C)C(=O)N[C@H](C(=O)N[C@@H](CCCNC(=N)N)C(=O)N[C@@H](CCC(N)=O)C(=O)N[C@@H](CCCNC(=N)N)C(=O)N[C@@H](Cc1ccc(O)cc1)C(N)=O)[C@@H](C)O
B5: Compound 48 (peptide)
peptide: Isovaleryl-APEK([AEEA-AEEA-γGlu-C18 diacid])PEEDTEPEELQRYYVSLRHYYNWLTRQRY-NH2
SMILES: CC(C)CC(=O)N[C@@H](C)C(=O)N1CCC[C@H]1C(=O)N[C@@H](CCC(=O)O)C(=O)N[C@@H](CCCCNC(=O)COCCOCCNC(=O)COCCOCCNC(=O)CC[C@H](NC(=O)CCCCCCCCCCCCCCCCC(=O)O)C(=O)O)C(=O)N1CCC[C@H]1C(=O)N[C@@H](CCC(=O)O)C(=O)N[C@@H](CCC(=O)O)C(=O)N[C@@H](CC(=O)O)C(=O)N[C@H](C(=O)N[C@@H](CCC(=O)O)C(=O)N1CCC[C@H]1C(=O)N[C@@H](CCC(=O)O)C(=O)N[C@@H](CCC(=O)O)C(=O)N[C@@H](CC(C)C)C(=O)N[C@@H](CCC(N)=O)C(=O)N[C@@H](CCCNC(=N)N)C(=O)N[C@@H](Cc1ccc(O)cc1)C(=O)N[C@@H](Cc1ccc(O)cc1)C(=O)N[C@H](C(=O)N[C@@H](CO)C(=O)N[C@@H](CC(C)C)C(=O)N[C@@H](CCCNC(=N)N)C(=O)N[C@@H](Cc1c[nH]cn1)C(=O)N[C@@H](Cc1ccc(O)cc1)C(=O)N[C@@H](Cc1ccc(O)cc1)C(=O)N[C@@H](CC(N)=O)C(=O)N[C@@H](Cc1c[nH]c2ccccc12)C(=O)N[C@@H](CC(C)C)C(=O)N[C@H](C(=O)N[C@@H](CCCNC(=N)N)C(=O)N[C@@H](CCC(N)=O)C(=O)N[C@@H](CCCNC(=N)N)C(=O)N[C@@H](Cc1ccc(O)cc1)C(N)=O)[C@@H](C)O)C(C)C)[C@@H](C)O
B6: Compound 47 (peptide)
peptide: Isovaleryl-APEK([AEEA-AEEA-γGlu-C18 diacid])PPADASPEELQRYYVSLRHYYNWLTRQRY-NH2
SMILES: CC(C)CC(=O)N[C@@H](C)C(=O)N1CCC[C@H]1C(=O)N[C@@H](CCC(=O)O)C(=O)N[C@@H](CCCCNC(=O)COCCOCCNC(=O)COCCOCCNC(=O)CC[C@H](NC(=O)CCCCCCCCCCCCCCCCC(=O)O)C(=O)O)C(=O)N1CCC[C@H]1C(=O)N1CCC[C@H]1C(=O)N[C@@H](C)C(=O)N[C@@H](CC(=O)O)C(=O)N[C@@H](C)C(=O)N[C@@H](CO)C(=O)N1CCC[C@H]1C(=O)N[C@@H](CCC(=O)O)C(=O)N[C@@H](CCC(=O)O)C(=O)N[C@@H](CC(C)C)C(=O)N[C@@H](CCC(N)=O)C(=O)N[C@@H](CCCNC(=N)N)C(=O)N[C@@H](Cc1ccc(O)cc1)C(=O)N[C@@H](Cc1ccc(O)cc1)C(=O)N[C@H](C(=O)N[C@@H](CO)C(=O)N[C@@H](CC(C)C)C(=O)N[C@@H](CCCNC(=N)N)C(=O)N[C@@H](Cc1c[nH]cn1)C(=O)N[C@@H](Cc1ccc(O)cc1)C(=O)N[C@@H](Cc1ccc(O)cc1)C(=O)N[C@@H](CC(N)=O)C(=O)N[C@@H](Cc1c[nH]c2ccccc12)C(=O)N[C@@H](CC(C)C)C(=O)N[C@H](C(=O)N[C@@H](CCCNC(=N)N)C(=O)N[C@@H](CCC(N)=O)C(=O)N[C@@H](CCCNC(=N)N)C(=O)N[C@@H](Cc1ccc(O)cc1)C(N)=O)[C@@H](C)O)C(C)C

Target: T1, human neuropeptide Y2 receptor (human, UniProt P49146 1-381)
T1 construct: whole, on cells; also called hNPY2 receptor; hNPY2-R
T1 sequence (looked up): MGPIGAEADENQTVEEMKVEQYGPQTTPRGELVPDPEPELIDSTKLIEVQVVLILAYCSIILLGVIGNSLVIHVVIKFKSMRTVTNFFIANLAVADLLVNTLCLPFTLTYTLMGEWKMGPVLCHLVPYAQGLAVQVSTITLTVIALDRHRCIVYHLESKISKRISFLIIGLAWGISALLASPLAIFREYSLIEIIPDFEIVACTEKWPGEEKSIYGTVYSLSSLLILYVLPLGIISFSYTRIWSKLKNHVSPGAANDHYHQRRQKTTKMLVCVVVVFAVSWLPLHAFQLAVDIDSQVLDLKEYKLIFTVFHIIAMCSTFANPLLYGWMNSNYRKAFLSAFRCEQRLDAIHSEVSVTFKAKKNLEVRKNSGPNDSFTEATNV
Assay: radioligand competition (125I-PYY(1-36)), hNPY2R membranes
In short: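 Commercial human Y2 receptor membranes (0.5 μg protein/well) were incubated with peptide for 2 h at room temperature in 50 mM HEPES, 5 mM MgCl₂, 1 mM CaCl₂, pH 7.4, with 0.2% ovalbumin. Bound radioligand was separated on PEI-soaked GF/C filters and counted by scintillation, and IC₅₀ came from nonlinear sigmoidal regression.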

Row | Binder | Ki [nM]
1 | B1 | 5.92
2 | B2 | 0.4
3 | B3 | 3.97
4 | B4 | 4.44
5 | B5 | 38.9
6 | B6 | 0.42
